{"source": "paper PMC6474348", "molecules": {"B1": {"name": "8 bp dsRNA (dsRNA)", "RNA 1": "CGCAUGCG", "RNA 2": "CGCAUGCG"}}, "key": {"[1]": {"target": "maltose binding protein (MBP)-batVP35 (Myotis lucifigus)", "test": "SEC-MALS"}, "[2]": {"target": "eVP35 IID (MBP-eVP35 215-240 as printed) (Ebola virus, UniProt Q05127 215-340)", "test": "filter binding"}}}
{"molecule": "maltose binding protein (MBP)-batVP35 (natural protein)", "values": [{"measurement": "stoichiometry N", "setting": "[1]", "value": 4}]}
{"molecule": "B1", "values": [{"measurement": "binding signal", "setting": "[2]", "value": "1 fraction relative to eVP35"}]}
